Measurements published in a protein production outcome set (Wang et al. 2014).

Assay: label from the status in PepcDB records
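Further: failed if final PepcDB status was selected cloned or expressed and not failed if soluble or beyond.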

Row | Sequence | protein production
1 | MMGLKAHAMVLEKFNQPLVYKEFEISDIPRGSILVEILSAGVCGSDVHMFRGEDPRVPLPIILGHEGAGRVVEVNGEKRDLNGELLKPGDLIVWNRGITCGECYWCKVSKEPYLCPNRKVYGINRGCSEYPHLRGCYSSHIVLDPETDVLKVSEKDDLDVLAMAMCSGATAYHAFDEYPESFAGKTVVIQGAGPLGLFGVVIARSLGAENVIVIAGSPNRLKLAEEIGADLTLNRRETSVEERRKAIMDITHGRGADFILEATGDSRALLEGSELLRRGGFYSVAGVAVPQDPVPFKVYEWLVLKNATFKGIWVSDTSHFVKTVSITSRNYQLLSKLITHRLPLKEANKALELMESREALKVILYPEG | not failed
2 | MNAKIIASLAFTSMFSLSTLLSPAHAEEQEKALNFGIISTESQQNLKPQWTPFLQDMEKKLGVKVNAFFAPDYAGIIQGMRFNKVDIAWYGNLSAMEAVDRANGQVFAQTVAADGSPGYWSVLIVNKDSPINNLNDLLAKRKDLTFGNGDPNSTSGFLVPGYYVFAKNNISASDFKRTVNAGHETNALAVANKQVDVATNNTENLDKLKTSAPEKLKELKVIWKSPLIPGDPIVWRKNLSETTKDKIYDFFMNYGKTPEEKAVLERLGWAPFRASSDLQLVPIRQLALFKEMQGVKSNKGLNEQDKLAKTTEIQAQLDDLDRLNNALSAMSSVSKAVQ | failed
3 | MIVFDGHNDVLTELVRAGGRAAAGGFLSGLPGQLDLPRARAGGFGGGFFALWARSEGATDFSTLGPEYDLPLPEPVPEAQAWEMIRAQADTLVALEEAGAVRICTSTAQIARARDEGLLGAILHLEGAEGIGPDFYELEELYALGLRSLGPVWSRPNAFGHGVPFRYPSGPDIGPGLTERGRALIARCEELRILIDLSHLNLAGFREVAALSKRPLVATHSNAHARVPHARNLTDEQLRIMAESGGLAGVNFESTFLRPDGRPDDDIPAAWLLAQFDHLLDRLGEEGVAIGSDYDGCTPPAWLNSVDKLPALIAAMERHGYPAARIERICWGNWMRVLAETWGESA | failed
4 | MEWLNEPPNWSHSDQKIIVTTSPKTDFWRITHYGFIRDSGHFYFDRVSTDFVVDVKIKGNYKDLYDQAGIMIRADEQHWIKTGIEYVDGVQNLSAVVTHNYSDWSFTPLLNPPNIFQVRVERCQEAIHIAYLDEYSRYVPFRMAYFPVALDIQVGIMCASPQGNGYEVIFEDYQLTKKGEKLSLEHHHHHH | failed
5 | GPHQRLEKLDSLLSDYDILSLSNIQQHSVRKRDLQTSTHVETLLTFSALKRHFKLYLTSSTERFSQNFKVVVVDGKNESEYTVKWQDFFTGHVVGEPDSRVLAHIRDDDVIIRINTDGAEYNIEPLWRFVNDTKDKRMLVYKSEDIKNVSRLQSPKVCGYLKVDNEELLPKGLVDREPPEGKT | not failed
6 | MNIQIILSLIFSMILMACTTSSPQKDLSRICDSSGCSDRSGNYVSNHSSAASSDEEARIRVLEDVARQDPRAAYDLGLRYFRGDGVRQDSYQALQWMREAAERGDLNAQKALGRLYLTGLEEMGADYREAEKWLRIAASRGDKESEQLLVEAAAFASEERRSGEIYHRWVNRWQPVFYQRWYYGYPYLGTWRGNYWYY | failed
7 | MEKAMPESFVVRREAHLAAPPAAVFALMTDPEKILRWMGTEAEVEPEPGGLYLVNVTGARFARGSFREVVPVHRLAYSFGWDGSEVVPPGSSLVEIDLIEQGGGTLLRLTHSGLPSAEQCAGHEEGWAHYLGRLTEVAAGRDPGLEHHHHHH | failed
8 | MSQTEPPEDLMQYEAMAQDALRGVVKAALKKAAAPGGLPEPHHLYITFKTKAAGVSGPQDLLSKYPDEMTIVLQHQYWDLAPGETFFSVTLKFGGQPKRLSVPYAALTRFYDPSVQFALQFSAPEIIEDEPEPDPEPEDKANQGASGDEGPKIVSLDQFRKKLEHHHHHH | not failed
9 | PQEKLKLLAFTGTKGKTTAAYFAYHMLKESYKPAMFSTMNTTLDGKTFFKSQLTTPESLDLFAMMAECVTNGMTHLIMEVSSQAYLVDRVYGLTFDVGVFLNISPDHIGPIEHPTFEDYFYHKRLLMENSRAVVINSGMDHFSFLADQVADQEHVFYGPLSDNQITTSQAFSFEAKGQLAGHYDIQLIGHFNQENAMAAGLACLRLGASLADIQKGIAKTRVPGR | failed
10 | MDGEIDADELRSKLDEETVRVVDIRSPGAFERGHIPESENVPFPSLVDEVERFEGDDEVVTVCPKGKSSVQAARLIASYEGFDGDVVSFAPGLNGWDGPLERAEDEETPADTAAADRDSDEGPAAPF | failed
11 | VAARPPALCKGCSHRDVYDALNEVLTEYPNGRVFSDIGCYTLGALPPYEAINSCVDMGASITMAKGAADAGLFPAVSVIGDSTFTHSGITGLLDAINENSNITVIISDNESISMTGGQHSSAYGKVEAICRGIGVDPDHIRELLPVPKNHDELCSIIREEINYEGVSVIIPRRVCIQKHARDAKAAKRAKAKE | failed
12 | MQKLVEQVWDYTKHAKFYSYRPNYAPKTIDMLISLVGKKDIKVADIGAGTGNLSIMLLERGCKVVSVEPNDAMREIGIERTKDQKIDWVRATGLNSTLQNSEFDWVTFGSSFNVMDRNEALEEAHRLLKSEGYFSCMWNHRDLNDPVQKIAEDTIVEFVPNYTRGTRREDQRPIIESRKDLFDNIVYIEEDFYFHQSIENYINAWKSVKNPYWDLETDEGNELFNKISNKISQRLPKEFSIKYTTRCWSAKKI | failed
13 | MNSCVLFAEVIQGPELRYTQENQMAVATMVVQFASLRSEEPPMSLRTVAWGNLGQKMHAECKVGDRLILEGRLKMDTIDRPEGFKEKRAELVVSRFYTVDGNIVDHPAQPAATVPVTPRVAPPPPEFEDISLDEVPFLEHHHHHH | not failed
14 | MGEMAPTLVLKNATYLNSVRGKWLDANIWIYQDRIVYVGQDMPAKLDDETEVVDCGQQVIVPGYIEHHAHPFQLYNPHSFANYAAAMGTTTLINDNLEHHHHHH | not failed
15 | MNRILQQVANQYWFRVSLTVICCLATICLGVHQSYVWFSVSACLLILSIIWQVRLYRLHIKQVLFMIDALENNDSAFRFPEESGTPESKQINRALNRVGHILYNVKAETAQQEKYYKLILDFVSTGLLVLNDNGAVYQKNKEALRLLGLNVFTHVRQLSKVDATLMEKIESCCSGDKLQVVFHNERGTVNLSIRVSEINVHKEHLRILALNDINIELDEKEIDSWIRLTRVLTHEIMNSVTPITSLSDTLLSMVEDKDEEISHGLQTISATGKGLLAFVESYRKFTRIPTPEPSLFYLKAFIERMVELARHQNPCDHITFHTKIDPADLILHADENLISQVVINLLKNAIQAIGDQPDGQIDIQVYCNETEEVLIEIKNNGPVIPPEIVEHIFIPFFTTKEGGSGIGLSISRQIMRLSGGSLTLLPDNKETKFILKFK | failed
16 | MIKAYFGAETFTLNKDFAYILVIGTTDVSLIPGLTIAGATPELTHFTPAADAEYVILGKCKSINTIPVSPTGIPTPALLTRASLSFTKSLKIVVNAGSRITPKIPYIDLQGEPGKDIRKQALSIEKVNIIIENGIKLGEELSNEYELIMIGESIPAGTTTAMATLLALGYDAMDKVSSASPDNPKELKRKVVEEALRNLPTDPLQRLAKVSDPVLLGVAGISLGFRGKILLAGGTQMTAAAAIVNEFDKSKLKDIIIGTTKWIVEDKSADMLSLAKQVGVKVLASMLDLSISIHEGIRTYEKGYVKEGVGAGGSTIMAFIRGVSNSTLVRKIDELYSELVGSNNLNT | failed
17 | MEFLAYFNSVISNNIFLAIILSFFAGVVASFSPCTLSSIPLLIGYVQGSEVKDNKKAFKYSLIFSIGLGITFTVIGLLTALIGKAFLGAGKFWYIILAFIMIGSGLQVLDVINLFGDKKEACKITKRREGILDAFFLGILSGILASPCATPIMAAIIAFIAASGNLVIGMIMLLMYSLGHSVLIILAGTSFGLVEKIAYSENGKKIGRVLKNILGTIIILVGLYLFYLGV | failed
18 | SLENVLASHSKMQGALEKVQIELGRRDSEIAGLKKERDLNQQRVQKLEAEVDQWQARMLVMEDQHNSEIESLQKALGVAREDNRKLAMSLEQALQTNNHLQTKLDHIQEQLESKELERQNLETFKDRMTEESKVEAELHAERIEALRKQFQTERETTKKVAQREVAELKKALDEANFRSVEVSRTNRELRQKLAELEKILESNKEKIKNQKTQIKLHLSAKANNAQNIERMKVVWETSSHFLDTL | not failed
19 | MGEVWTWIISFLILITLLGLIVYQLISLADLEFDYINPYDSASRINFVVLPESILQGFLCVFYLVTGHWFMALLCVPYLYYNFHLYSRKQHLIDVTEIFNLLDWEKKKRLFKLAYIILTLFLTIFWLIYSTLDDYED | failed
20 | MAASTDIAGLEESFRKFAIHGDPKASGQEMNGKNWAKLCKDCKVADGKAVTGTDVDIVFSKVKAKSARVINYEEFKKALEELATKRFKGKSKEEAFDAICQLIAGKEPANIGVTKAKTGGAVDRLTDTSKYTGSHKER | not failed
21 | MLYPSKPNNEALRIQTLRELNVLDTSPEERFDRLTRLAKRLFNVPIALVSLVDADRQWFKSCVGLDVSETSRDISFCGHAILGDQILTVPDAGLDERFHDNPLVVGAPGIRFYAGCPLTVTNGSKLGTLCLIDIKPRDLDDEDRALLRDLARMAEQELAAVQMASMDELTLLSNRRGFEALARHALGVCKRLEKPATLLFFDLNDFKQINDTYGHAEGDGALKTFADVLRIAFRESDVIGRLGGDEFVALLTAADHVETSAIMARLREILDERNATLKRGYDIRFSVGQIEYDAERHPDIEALLADADKAMYLHKQASKRARLEHHHHHH | failed
22 | MSNDSPQLPDFLLAGRYRLHRLIGAGGMGRVWEGVDELLDRPVAIKELTINEHLPPQEIEILRARMLREARSAAQLSHPSIITVFDVVEKDGFPWIVMELVHGKSLSEIIKQEGAISPERAANLGLQVAAALSVAHQRGIVHRDIKPGNVLVARGDRAVLTDFGIAYLEGSSRLTRTGSLLGSPSYLAPEQARGEPASPAADMWALGTTLYAALHGAPPFQRATPMATLTAVVVDEVPPPVKAGPLRPLLEQLLNKDPQKRPTVHEVVEELQRVVMSFPPQSSSASSTGTHTLQEEASPAPAEVSVAKPAADTSALPLSSPAEPGKRNSTLATVGLVALALCVVVAVITAVVLFVPAGGNSRADGEQPAAETSQSSEETGQAEEPEPTTSAEAAEQGVGEDDEDSEEEAEDDDYSGPPLVRHEDPTGFSLDVPEGWSVDRRGSSVFFRNPEGGYLQVDQTDSPNPDAKKDWEAQERGAAGRFSNYSLIDIRYSDHPSMERYVTASDWEFTFTINGQRMHAVNRGFHTEKKGYALFLVYPADGWEETGAPLLDRMSESFEPAA | failed
23 | MGFFSRDIQTMEDLLLHGLRDIYYAEQQITKALPKMIEQATNRDLSQGLTSHLEETQKQIERLDQVFKKLGQKPSGVNCPAIDGLIKEADETAGEIADKTVLDAAIVANAQAVEHYEIARYGTLIAWAEELGHDDIVRFLTTNLNEEKAANTKLNTVALRKGVNRKAAS | not failed
24 | MGNFMDDQCLLHASALTYSTLLSIVPFFALAFAVLKGLGVQNTLEPFILDQVAAGSHEIVDRIVTYINNTKVGSLGAVGLVTLVVSTVTLLGNIEETFNSIWGVRETRSLYRRFSDYLSVVVFGPILIFAAISVTTTLESQKAVQWLIGTAYLGDVLVAAFRLVPYVSIWLALVFLYMLIPNTKVRFRSALVGGVIAGTLWQAAQWGYIHFQVGVAKYNAIYGTLAVLPVFMIWLYASWSIVLFGVEVVYAHQHRRTFRHETHIPDLEPAARERLALALLLEVCRTFFRDGAPWNAERLAERLDVPERTARETLGMLVAKGWLAESCGEETLYLPARELEHMRVRELIASLRGHAMPLATGRFDPAVEWLAARMEGAVAAELGEVNFRTLAEGGGVD | failed
